{"source": "paper PMC5707411", "about": "(2017)", "key": {"[1]": {"target": "prefusion-stabilized RSV F strain A2 (DS-Cav1)", "assay": "SPR"}, "[2]": {"target": "prefusion-stabilized RSV F strain A2 (DS-Cav1)", "assay": "SPR", "remark": "listed apart in the source"}}, "data": [{"binder": "5C4 Fab (Fab, V domains shown) VH: EVQLQQSGAELVKPGASVKLSCTASGFNIKDTFFHWVKQRPEQGLEWIGRIDPADGHTKYDPKFQGKATITADTSSNTAFLQLSSLTSVDTAVYYCATTITAVVPTPYNAMDYWGQGTSVTVSS VL: DIVLTQSPASLAVSLGQRTTISCRASESVDSFDNSFIHWYQQKPGQPPKLLIFLASSLESGVPARFSGSGSRTDFTLTIDPVEADDAATYYCQQSNEDPFTFGSGTKLEIK", "values": [{"measurement": "koff", "setting": "[1]", "result": 0.00454, "unit": "s⁻¹"}, {"measurement": "Kd", "setting": "[2]", "result": 25.7, "unit": "nM"}]}]}
